# Measured values as given in patent publication US20160326228A1 (ACCELERON PHARMA, published 2016).
# B1: ActRIIB(20-134)-hFc (Fc fusion)
# chain: GRGEAETRECIYYNANWELERTNQSGLERCEGEQDKRLHCYASWRNSSGTIELVKKGCWLDDFNCYDRQECVATEENPQVYFCCCEGNFCNERFTHLPEAGGPEVTYEPPPTAPT
# notes: not shown: linker (if any) and human Fc (hFc)
# B2: Growth and Differentiation Factor-11 (GDF11) (ligand, UniProt O95390 299-407, looked up)
# chain: NLGLDCDEHSSESRCCRYPLTVDFEAFGWDWIIAPKRYKANYCSGQCEYMFMQKYPHTHLVQQANPRGSAGPCCTPTKMSPINMLYFNDKQQIIYGKIPGMVVDRCGCS
# notes: also called BMP11
# B3: Soluble ActRIIB-Fc WT (64R) (Fc fusion)
# chain: GRGEAETRECIYYNANWELERTNQSGLERCEGEQDKRLHCYASWRNSSGTIELVKKGCWLDDFNCYDRQECVATEENPQVYFCCCEGNFCNERFTHLPEA
# notes: whole entry named; not shown: linker (if any) and Fc
# B4: Soluble ActRIIB-Fc +15tail (Fc fusion, UniProt Q13705 19-134, looked up)
# chain: SGRGEAETRECIYYNANWELERTNQSGLERCEGEQDKRLHCYASWANSSGTIELVKKGCWLDDFNCYDRQECVATEENPQVYFCCCEGNFCNERFTHLPEAGGPEVTYEPPPTAPT
# notes: as for B3
# How the values were obtained:
# [1] = molecular target: B2; assay: cell-based or functional assay
# [2] = molecular target: T1, Activin A (UniProt P08476 311-426); assay: cell-based or functional assay
# T1 sequence (looked up): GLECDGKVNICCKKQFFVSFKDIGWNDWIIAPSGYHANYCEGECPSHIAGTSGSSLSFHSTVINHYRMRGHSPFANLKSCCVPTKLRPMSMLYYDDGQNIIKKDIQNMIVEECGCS
# [3] = molecular target: T1, Activin A; assay: BiaCore; receptor-Fc captured by anti-hFc antibody, ligand injected
# Procedure: (§1) Binding of certain ActRIIB-Fc proteins and GDF Traps to ligands was tested in a BiaCore™ assay.
# (§2) The ActRIIB-Fc variants or wild-type protein were captured onto the system using an anti-hFc antibody. Ligands were injected and flowed over the captured receptor proteins.
# [4] = molecular target: T2, Activin B (UniProt P09529 293-407); assay: Biacore; steady-state affinity fit
# T2 sequence (looked up): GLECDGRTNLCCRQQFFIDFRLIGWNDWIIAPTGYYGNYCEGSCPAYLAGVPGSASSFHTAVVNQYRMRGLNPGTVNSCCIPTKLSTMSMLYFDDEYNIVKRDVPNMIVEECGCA
# Procedure: (§3) The affinity of GDF Traps and other ActRIIB-hFc proteins for several ligands was evaluated in vitro with a BiacoreTM instrument. Kd values were obtained by steady-state affinity fit due to the very rapid association and dissociation of the complex, which prevented accurate determination of kₒₙ and koff.
# [5] = molecular target: T1, Activin A; assay: Biacore; steady-state affinity fit
# Procedure: as §3
# [6] = molecular target: B4; assay: BiaCore; ligand coupled, receptor flowed over; +15tail construct; ligand coupled to the device, receptor flowed over (data from WO2006/012627)
# [7] = molecular target: B1; assay: BiaCore; receptor-Fc captured by anti-hFc antibody, ligand injected
# Procedure: as §1, §2
# [8] = molecular target: B1; assay: Biacore; steady-state affinity fit
# Procedure: as §3
# [9] = molecular target: B2; assay: BiaCore; ligand coupled, receptor flowed over; WT (64R) construct; ligand coupled to the device, receptor flowed over (data from WO2006/012627)
# [10] = molecular target: T1, Activin A; assay: BiaCore; ligand coupled, receptor flowed over; ligand coupled to the device, receptor flowed over (data from WO2006/012627)
binder,measurement,setting,value
B1,"IC50 (ng/mL), A-204 reporter gene assay, conditioned media",[1],45 ng/mL
same,"IC50 (ng/mL), A-204 reporter gene assay, conditioned media",[2],22 ng/mL
same,Kd,[3],0.0268 nM
same,koff,[3],0.000159 s⁻¹
same,kon,[3],5.94e+06 M⁻¹ s⁻¹
same,Kd,[4],0.012 nM
same,Kd,[5],0.016 nM
B2,Kd,[6],19 nM
same,Kd,[7],0.0842 nM
same,koff,[7],0.000113 s⁻¹
same,kon,[7],1.34e+06 M⁻¹ s⁻¹
same,Kd,[8],0.036 nM
B3,Kd,[9],86 nM
B4,Kd,[10],~26 nM
